From patent US20150197568A1 (AstraZeneca / MedImmune, published 2015)

Experiments:
[1] = target: T1, HIS FLAG tagged human IL-6 (human, UniProt P05231 30-212); experiment: HTRF receptor-ligand competition; HIS FLAG human IL-6 vs biotinylated sIL-6R
T1 construct: In house; also called HIS FLAG IL-6; HIS/FLAG IL-6
Description: Unique scFvs were expressed again in bacteria and purified by affinity chromatography (as described by Bannister et al. Purified IgG samples of these clones were also prepared as described in section 1.3. The potencies of these samples were determined by competing a dilution series of the purified preparation against biotinylated sIL-6R for binding to HIS FLAG tagged human IL-6 (in house E. coli derived).
Purified scFv and IgG from positive clones identified from screening were tested in a HTRF® assay for inhibition of binding of HIS FLAG tagged human IL-6 to biotinylated IL-6R. 8 nM biotinylated human IL-6R was pre-incubated for 30 minutes at room temperature in the dark, with 8 nM streptavidin XL^{ent!}™. All dilutions were done in phosphate buffered saline (PBS) containing 0.4 M potassium fluoride and 0.1% BSA (assay buffer).

Murine IL-6 = target: T2, Murine IL-6 (murine, UniProt P08505 25-211); experiment: DELFIA epitope competition; protein titrated against biotinylated HIS FLAG IL-6 on immobilised CAN022D10 IgG
T2 construct: also called mouse IL-6
T2 sequence (looked up): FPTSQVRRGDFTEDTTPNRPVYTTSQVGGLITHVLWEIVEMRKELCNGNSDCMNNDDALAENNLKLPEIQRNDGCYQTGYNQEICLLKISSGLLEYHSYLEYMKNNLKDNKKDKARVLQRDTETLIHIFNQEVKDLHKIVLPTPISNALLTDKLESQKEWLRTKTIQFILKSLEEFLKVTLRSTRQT
Description: (§1) Titrations of IL-6 species including cynomolgus (in house E. Coli derived), human HIS FLAG IL-6 (in house HEK-EBNA derived), rat and murine IL-6 (both R & D Systems) were tested in each assay to establish the species cross-reactivity of the antibodies. Details of the protocol are provided in the Materials and Methods section.
(§2) Purified IgG were adsorbed onto 96-well Maxisorp microtitre plates (Nunc) in PBS at a concentration which gave a significant signal when biotinylated human IL-6 was added at approximately its estimated Kd for that particular IgG. Excess IgG was washed away with PBS-Tween (0.1% v/v) and the wells were blocked with PBS-Marvel (3% w/v) for 1 h. […] These mixtures were then transferred onto the blocked IgG and allowed to equilibrate for 1.5 h. Unbound antigen was removed by washing with PBS-Tween (0.1% v/v), while the remaining biotinylated human IL-6 was detected by streptavidin-Europium3+ conjugate (DELFIA® detection, PerkinElmer). Time-resolved fluorescence was measured at 620 nm on an EnVision plate reader (PerkinElmer). Fluorescence data was converted to % specific binding (100% was determined from control wells containing biotinylated human IL-6 but no competitor, 0% was from wells containing biotinylated human IL-6 and a 100-fold excess of unbiotinylated human IL-6). Resultant data were analysed using Prism curve fitting software (Graphpad) to determine IC50 values according to Equation 3.

Human IL-11 = target: T3, Human IL-11 (human, UniProt P20809 22-199, limits assumed); experiment: as above
T3 sequence (looked up): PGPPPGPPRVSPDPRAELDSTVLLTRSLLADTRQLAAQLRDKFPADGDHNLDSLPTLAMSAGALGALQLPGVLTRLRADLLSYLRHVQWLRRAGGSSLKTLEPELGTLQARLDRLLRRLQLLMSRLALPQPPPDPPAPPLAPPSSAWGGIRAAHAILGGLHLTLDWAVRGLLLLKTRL
Description: as §1, §2

Human LIF = Human LIF (human, UniProt P15018 23-202); experiment: as above
Description: as §1, §2

Human Oncostatin M = target: T4, Human Oncostatin M (human, UniProt P13725 26-221); experiment: as above
T4 construct: also called OsM
T4 sequence (looked up): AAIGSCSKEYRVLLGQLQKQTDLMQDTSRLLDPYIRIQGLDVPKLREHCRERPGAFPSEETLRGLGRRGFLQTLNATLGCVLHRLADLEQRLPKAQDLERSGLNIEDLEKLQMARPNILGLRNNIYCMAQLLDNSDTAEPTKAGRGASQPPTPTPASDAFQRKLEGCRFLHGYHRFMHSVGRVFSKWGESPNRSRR
Description: as §1, §2

Human CNTF = target: T5, Human CNTF (human, UniProt P26441 2-200); experiment: as above
T5 construct: also called ciliary neurotrophic factor
T5 sequence (looked up): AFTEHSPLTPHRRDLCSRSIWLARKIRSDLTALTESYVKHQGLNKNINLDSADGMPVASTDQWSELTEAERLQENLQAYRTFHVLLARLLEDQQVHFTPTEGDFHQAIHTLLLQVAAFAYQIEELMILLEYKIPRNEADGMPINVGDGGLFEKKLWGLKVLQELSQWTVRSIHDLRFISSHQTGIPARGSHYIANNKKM
Description: as §1, §2

Rat IL-6 = target: T6, Rat IL-6 (rat, UniProt P20607 25-211); experiment: as above
T6 sequence (looked up): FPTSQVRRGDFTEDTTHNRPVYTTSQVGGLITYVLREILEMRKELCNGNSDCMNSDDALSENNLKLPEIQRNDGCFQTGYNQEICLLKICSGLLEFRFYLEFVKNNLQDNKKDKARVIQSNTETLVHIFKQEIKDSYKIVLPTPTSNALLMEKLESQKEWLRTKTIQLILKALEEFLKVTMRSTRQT
Description: as §1, §2

Mature human IL-6 = Mature human IL-6 (human, UniProt P05231 30-212); experiment: cell-based or functional assay

Chain of Human LIF (P15018 23-202 limits assumed): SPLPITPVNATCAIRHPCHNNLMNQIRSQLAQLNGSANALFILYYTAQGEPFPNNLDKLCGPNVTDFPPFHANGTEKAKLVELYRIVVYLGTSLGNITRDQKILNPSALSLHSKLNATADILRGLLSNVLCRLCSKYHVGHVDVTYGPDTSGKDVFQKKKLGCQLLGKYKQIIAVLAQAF

- IC50 [1]: 0.31 nM
- binding result (Murine IL-6): no binding
- binding result (Human IL-11): no binding
- binding result (Human LIF): no binding
- binding result (Human Oncostatin M): no binding
- binding result (Human CNTF): no binding
- binding result (Rat IL-6): no binding
- IC50, IL-6 induced TF-1 cell proliferation (Mature human IL-6): 93 nM
- IC50, endogenous IL-6 induced VEGF release from human synovial fibroblasts (Mature human IL-6): 45 nM
B1: CAN022D10 IgG (antibody, V domains shown)
VH: EVQLVQSGGGLIQPGGSLRLSCAASGFTISSNYMIWVRQAPGKGLEWVSDLYYYAGDTYYADSVKGRFTMSRDISKNTVYLQMNSLRAEDTGVYYCARWADDHYYYIDVWGRGTLVTVSS
VL: DIVMTQSPSTLSASVGDRVTITCRASQGISSWLAWYQQKPGRAPKVLIYKASTLESGVPSRFSGSGSGTDFTLTISSLQPEDFATYYCQQSYSTPWTFGQGTKLEIKR
notes: Biotinylated in the HTRF antibody-ligand assay; also called CAN22D10; parent IgG
